Test results from paper doi:10.1101/2025.01.22.634233.

How the values were obtained:
Assay in all cases: fluorescence polarisation
[1] = molecular target: pY1pS5-(CTD)2 peptide, 5,6-FAM-labelled
[2] = molecular target: non-phosphorylated (CTD)2 peptide, 5,6-FAM-labelled
[3] = molecular target: pS5-(CTD)2 peptide, 5,6-FAM-labelled

Row | Substance | Kd [1] | Kd [2] | Kd [3]
1 | BRCA1 BRCT (BRCA1^1646-1859), wild type (from UniProt P38398 1646-1859) (domain or fragment) | 184 µM | 948 µM | –
2 | BRCA1 BRCT R1699L (from UniProt P38398 1646-1859) (domain or fragment) | – | – | 413 µM
3 | BRCA1 BRCT^S1655F,K1702M (from UniProt P38398 1646-1859) (domain or fragment) | – | – | 895 µM
